According to PMC7495481, “Sequence specificity analysis of the SETD2 protein lysine methyltransferase and discovery of a SETD2 super-substrate” (Communications Biology, 2020):
Ends that are not written are not given here.

Key:
SETD2 [1] = target: T1, SETD2 (Homo sapiens, UniProt Q9BYW2); assay: Western Blot detection of GST fusion methylation by SETD2 with H3K36me3 antibody; assay type: biochemical; settings: incubated with SETD2 and unlabeled AdoMet
T1 construct: SETD2 catalytic SET domain (amino acids 1347–1711, UniProt No: Q9BYW2); made in house; host or cells: E. coli
T1 sequence (Q9BYW2 1347-1711): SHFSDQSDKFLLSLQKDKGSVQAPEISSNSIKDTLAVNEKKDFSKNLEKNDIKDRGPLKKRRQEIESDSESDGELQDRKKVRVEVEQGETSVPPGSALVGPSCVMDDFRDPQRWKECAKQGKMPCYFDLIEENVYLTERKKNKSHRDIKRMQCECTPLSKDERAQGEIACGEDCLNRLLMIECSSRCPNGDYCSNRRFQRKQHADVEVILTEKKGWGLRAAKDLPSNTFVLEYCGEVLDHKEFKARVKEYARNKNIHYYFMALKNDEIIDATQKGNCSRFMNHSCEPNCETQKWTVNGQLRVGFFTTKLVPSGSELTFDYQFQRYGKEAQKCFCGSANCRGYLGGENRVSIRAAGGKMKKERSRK
Description: Supplementary Fig. 9: Control experiments related to Fig. 6c. a Validation of the detection of ssK36-GST methylation by the α-H3K36me3 antibody. The purified ssK36-GST and H3K36-GST substrates were incubated with SETD2 and unlabeled AdoMet. Afterwards, the proteins were separated by SDS-PAGE and blotted. Western Blot […]
of H3K36-GST methylation by SETD2 observed in Fig. 6a and 6b. Equal loading of the GST-tagged proteins is shown in the Coomassie BB stain of a parallel gel, equal loading of SETD2 is shown in the Ponceau S stain of the Western Blot membrane. b YFP-tagged ssK36 and H3K36 substrates were transfected into HEK293 cells together with DsRed-tagged SETD2 or DsRed empty vector (EV). The expression levels of DsRed-SETD2 and DsRed from EV were determined […]
Example of the FACS primary data for DsRed expression. d Average fraction of DsRed positive cells in three independent experiments normalized to DsRed-SETD2 + YFP-ssK36. EV, empty […]
(1 picture or pasted object on this page, not shown here)

SETD2 [2] = target: T1, SETD2; assay: Protein methylation assay (non-histone proteins, GST fusions, nucleosomes, H3.1); assay type: biochemical; settings: equal amounts; 6 µM SETD2, 0.76 µM AdoMet, 3 h, 25 °C; autoradiography
Description: The 9 new putative non-histone substrates of SETD2 were cloned into a pGEX-6p2 bacterial expression vector for protein expression. Six of them could be expressed and purified through glutathione sepharose beads (Table 1). For comparison, the super-substrate sequence was cloned with a […] GST-tag (ssK36-GST) to mimic the natural setting of the H3K36 site in the N-terminal tail of histone 3. Similar amounts of the purified non-histone substrate proteins and the ssK36-GST protein were loaded on an SDS-gel and stained with Coomassie BB (Supplementary Fig. 6a). Afterward protein methylation reactions were conducted using radioactively labeled AdoMet and the radioactive signal of the methyl group transfer was detected by autoradiography (Supplementary Fig. 6b). […] Next, we aimed to confirm the FBN1 methylation at the predicated target lysine K666. For this, a K666R mutation was introduced and the wildtype and mutant FBN1 proteins were purified by affinity chromatography. […]
Protein methylation reactions were performed in 40 µl methylation buffer containing 0.76 µM radioactive labeled AdoMet (PerkinElmer), approximately 20 µg of substrate protein and 6 µM SETD2 enzyme (if not otherwise indicated) for 3 h at 25 °C. […] The radioactive methylation signal was detected by a hyperfilm^TM high performance autoradiography film (GE Healthcare) at −80 °C in the dark. […]

SETD2 [3] = target: T1, SETD2; settings: H3K36 peptide, previously determined under the same conditions; ref [30]; cited from earlier work
SETD2 [4] = target: T1, SETD2; assay: Peptide SPOT array methylation of reported SETD2 substrates; assay type: biochemical; settings: SPOT array on cellulose membrane; 0.76 µM radioactive AdoMet, 3–6 µM SETD2, 60 min, pH 9; autoradiography
Description: Next, the SETD2 activity was tested on peptide SPOT arrays containing fifteen amino acid long peptides immobilized on a cellulose membrane. As reported SETD2 substrates, the H3K36 (29–43), α -tubulin (33–47) and STAT1 (518–532) peptides (with the target lysine centered in each case) were included, and peptides with the corresponding target lysine mutated to alanine were used as negative controls. The peptide array was incubated in methylation buffer supplemented with SETD2 and radioactively labeled AdoMet. […] Methylation of the previously reported non-histone substrates α -tubulin and STAT1 was not detectable at the peptide level and, therefore, they were excluded from further investigation.
Peptide arrays containing fifteen amino acid long peptides were synthesized using the SPOT synthesis method[48] with an Autospot peptide array synthesizer (Intavis AG, Köln, Germany). After synthesis, the obtained membranes were pre-incubated in methylation buffer (20 mM Tris/HCl pH 9, 0.01% Triton X-100, 10 mM DTT, 1.5 mM MgCl2) for 5 min on a shaker. Thereafter, the membranes were incubated in methylation buffer supplemented with 0.76 µM radioactively labeled AdoMet (PerkinElmer) and 3–6 µM SETD2 enzyme for 60 min on a shaker. After methylation, the membranes were washed 5 times for 5 min in wash buffer (100 mM NH4HCO3, 1% SDS) and incubated in amplify NAMP100V (GE Healthcare) for 5 min. This was followed by the exposure of the membranes to a hyperfilm^TM high performance autoradiography (GE Healthcare) film at −80 °C in the dark. The films were developed with an Optimax Typ TR machine after different exposue times. For quantification the signal intensities were measured with the Phoretix^TM software and analyzed with Microsoft Excel.
Supplementary Fig. 1: SETD2 protein and catalytic activity. a Purified His6-tagged SETD2 SET domain (1347-1711) was separated on an SDS-gel and […]
stained with Coomassie BB. […]
tubulin (33-47), STAT1 (518-532) and their corresponding target lysine to alanine mutant peptides were synthesized on a cellulose membrane. The membrane was incubated in methylation buffer supplemented with radioactively labeled AdoMet and SETD2. The signal of the transferred radioactive methyl groups was visualized by autoradiography.

SETD2 [5] = target: T1, SETD2; settings: ref [18],[19]; cited from earlier work
Description: SETD2 is a PKMT initially in 2005 identified to methylate H3K36[8]. So far, lysine 36 in H3 was still the best substrate known for this enzyme at the peptide level. At the protein level, H3 methylation by SETD2 is weak, but it is strongly stimulated in the context of a nucleosome as shown here by us and previously by others. […] In thi ...

H3K36-GST: H3K36 (29–43) sequence cloned with C-terminal GST-tag (APATGGVKKPHRYRP; also: C-terminal GST tag fusion; UniProt P68431 30-44, looked up, fragment)
H3K36me3 antibody Western Blot signal (SETD2 [1]): very weak signal
methylation of GST fusion proteins (in words) (SETD2 [2]): no signal was detected

H3K36 peptide: H3K36 (27–43) peptide purchased from Intavis AG (KSAPATGGVKKPHRYRP; UniProt P68431 28-44, looked up, fragment)
Km (SETD2 [3]): 65 µM

B1: STAT1: known non-histone substrate of SETD2, methylated at K525 (protein, UniProt P42224 2-750, looked up)
Signal transducer and …: SQWYELQQLDSKFLEQVHQLYDDSFPMEIRQYLAQWLEKQDWEHAANDVSFATIRFHDLLSQLDDQYSRFSLENNFLLQHNIRKSKRNLQDNFQEDPIQMSMIIYSCLKEERKILENAQRFNQAQSGNIQSTVMLDKQKELDSKVRNVKDKVMCIEHEIKSLEDLQDEYDFKCKTLQNREHETNGVAKSDQKQEQLLLKKMYLMLDNKRKEVVHKIIELLNVTELTQNALINDELVEWKRRQQSACIGGPPNACLDQLQNWFTIVAESLQQVRQQLKKLEELEQKYTYEHDPITKNKQVLWDRTFSLFQQLIQSSFVVERQPCMPTHPQRPLVLKTGVQFTVKLRLLVKLQELNYNLKVKVLFDKDVNERNTVKGFRKFNILGTHTKVMNMEESTNGSLAAEFRHLQLKEQKNAGTRTNEGPLIVTEELHSLSFETQLCQPGLVIDLETTSLPVVVISNVSQLPSGWASILWYNMLVAEPRNLSFFLTPPCARWAQLSEVLSWQFSSVTKRGLNVDQLNMLGEKLLGPNASPDGLIPWTRFCKENINDKNFPFWLWIESILELIKKHLLPLWNDGCIMGFISKERERALLKDQQPGTFLLRFSESSREGAITFTWVERSQNGGEPDFHAVEPYTKKELSAVTFPDIIRNYKVMAAENIPENPLKYLYPNIDKDHAFGKYYSRPKEAPEPMELDGPKGTGYIKTELISVSEVHPSRLQTTDNLLPMSPEEFDEVSRIVGSVEFDSMMNTV
peptide spot methylation signal (SETD2 [4]): did not show a detectable peptide methylation signal
reported methylation by SETD2 compared with H3K36 (SETD2 [5]): weaker than H3K36
